From patent US7223547B2, “Polypeptides having a functional domain of interest and methods of identifying and using same” (Cytogen Corporation, priority 1995, dated 2007)
* marks the point of attachment. Biotin = O=C1N[C@H]2[C@H](CS[C@H]2CCCCC(=O)*)N1

Assays:
[1] = tested on: virus that causes hepatitis B; conditions: at given dosages; cited from earlier work
[2] = patients to whom the drug is administered; cited from earlier work
[3] = target: T1, SH3P8, a novel mouse gene (mouse, UniProt Q62419 1-368); test: plaque-lift screen of mouse 16 day embryo cDNA expression library with biotinylated peptide complexed to SA-AP
T1 construct: Protein encoded by a cDNA clone, on plaque-lift filters; not shown: N-terminal phi10 leader (T7-Tag) common to all lambda EXlox recombinants

[4] = target: T2, SH3P6, mouse MLN50 (mouse, UniProt Q61792 59-263); test: as above
T2 construct: Protein encoded by a cDNA clone, on plaque-lift filters; not shown: N-terminal phi10 leader (T7-Tag) common to all lambda EXlox recombinants
T2 sequence: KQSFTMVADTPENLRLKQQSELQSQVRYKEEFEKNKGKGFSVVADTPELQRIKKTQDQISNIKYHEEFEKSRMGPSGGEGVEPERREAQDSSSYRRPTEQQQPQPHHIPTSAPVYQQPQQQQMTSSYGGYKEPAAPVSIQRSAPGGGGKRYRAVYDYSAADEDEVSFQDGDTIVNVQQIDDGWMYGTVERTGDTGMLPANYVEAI

[5] = target: T3, SH3P7, a novel mouse gene (mouse, UniProt Q62418 1-436); test: as above
T3 construct: Protein encoded by a cDNA clone, on plaque-lift filters; not shown: N-terminal phi10 leader (T7-Tag) common to all lambda EXlox recombinants

[6] = target: T4, SH3P12, a novel mouse gene (mouse, UniProt Q62417 1-1290); test: as above
T4 construct: Protein encoded by a cDNA clone, on plaque-lift filters; not shown: N-terminal phi10 leader (T7-Tag) common to all lambda EXlox recombinants
T4 sequence: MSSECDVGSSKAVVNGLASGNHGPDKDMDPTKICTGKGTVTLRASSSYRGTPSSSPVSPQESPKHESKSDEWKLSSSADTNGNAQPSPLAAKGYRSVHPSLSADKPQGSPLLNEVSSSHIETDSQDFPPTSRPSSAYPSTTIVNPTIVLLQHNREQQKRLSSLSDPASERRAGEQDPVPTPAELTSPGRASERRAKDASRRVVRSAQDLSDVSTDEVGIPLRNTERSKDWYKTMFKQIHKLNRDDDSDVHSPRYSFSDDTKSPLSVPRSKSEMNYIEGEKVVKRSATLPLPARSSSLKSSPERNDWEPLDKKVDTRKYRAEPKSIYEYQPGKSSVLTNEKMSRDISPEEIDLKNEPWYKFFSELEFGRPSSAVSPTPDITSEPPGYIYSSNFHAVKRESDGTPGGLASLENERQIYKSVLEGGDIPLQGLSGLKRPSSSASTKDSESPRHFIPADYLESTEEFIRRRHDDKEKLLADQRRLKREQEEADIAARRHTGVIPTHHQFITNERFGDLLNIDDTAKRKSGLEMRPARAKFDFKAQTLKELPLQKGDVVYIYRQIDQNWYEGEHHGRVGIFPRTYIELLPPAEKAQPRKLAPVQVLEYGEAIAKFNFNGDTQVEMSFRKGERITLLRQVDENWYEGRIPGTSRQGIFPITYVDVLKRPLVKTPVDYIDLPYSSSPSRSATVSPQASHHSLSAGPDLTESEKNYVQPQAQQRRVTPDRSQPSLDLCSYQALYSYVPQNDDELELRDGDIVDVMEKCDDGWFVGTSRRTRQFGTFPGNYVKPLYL

[7] = target: T5, SH3P10, mouse HS1 (mouse, UniProt P49710 1-486); test: as above
T5 construct: Protein encoded by a cDNA clone, on plaque-lift filters; also called SPY75/HS1; not shown: N-terminal phi10 leader (T7-Tag) common to all lambda EXlox recombinants
T5 sequence: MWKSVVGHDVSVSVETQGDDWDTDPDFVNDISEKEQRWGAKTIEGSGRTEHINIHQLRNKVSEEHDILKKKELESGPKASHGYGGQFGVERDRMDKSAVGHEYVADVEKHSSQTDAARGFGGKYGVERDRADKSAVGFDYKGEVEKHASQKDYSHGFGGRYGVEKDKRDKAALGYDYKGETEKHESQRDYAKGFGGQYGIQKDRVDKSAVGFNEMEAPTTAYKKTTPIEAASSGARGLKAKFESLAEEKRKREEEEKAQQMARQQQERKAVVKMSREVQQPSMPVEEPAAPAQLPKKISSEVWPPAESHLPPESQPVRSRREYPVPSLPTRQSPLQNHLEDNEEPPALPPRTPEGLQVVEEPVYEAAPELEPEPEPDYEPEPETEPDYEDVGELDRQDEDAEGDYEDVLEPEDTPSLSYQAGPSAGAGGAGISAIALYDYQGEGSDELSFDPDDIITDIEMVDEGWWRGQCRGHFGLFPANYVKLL

[8] = target: T6, SH3P9, a novel mouse gene (mouse, UniProt O08539 2-588); test: as above
T6 construct: Protein encoded by a cDNA clone, on plaque-lift filters; also called SH3P9 (mouse); not shown: N-terminal phi10 leader (T7-Tag) common to all lambda EXlox recombinants
T6 sequence: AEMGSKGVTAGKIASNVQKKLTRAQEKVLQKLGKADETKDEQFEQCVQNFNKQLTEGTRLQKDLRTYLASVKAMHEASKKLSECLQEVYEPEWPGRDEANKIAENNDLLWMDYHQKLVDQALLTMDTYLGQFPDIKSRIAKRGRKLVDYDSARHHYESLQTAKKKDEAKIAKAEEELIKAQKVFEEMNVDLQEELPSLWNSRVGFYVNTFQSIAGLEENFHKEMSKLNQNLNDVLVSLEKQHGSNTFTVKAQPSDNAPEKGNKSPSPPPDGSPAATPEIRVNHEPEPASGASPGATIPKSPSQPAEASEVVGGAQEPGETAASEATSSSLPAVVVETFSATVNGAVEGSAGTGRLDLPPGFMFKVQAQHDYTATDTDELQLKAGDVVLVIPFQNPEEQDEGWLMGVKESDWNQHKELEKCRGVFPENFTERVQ

[9] = target: T7, SH3P5, mouse Cortactin (mouse, UniProt Q60598 1-546); test: as above
T7 construct: Protein encoded by a cDNA clone, on plaque-lift filters; not shown: N-terminal phi10 leader (T7-Tag) common to all lambda EXlox recombinants

[10] = target: T8, SH3P11, mouse Crk (mouse, UniProt Q64010 1-304); test: as above
T8 construct: Protein encoded by a cDNA clone, on plaque-lift filters; not shown: N-terminal phi10 leader (T7-Tag) common to all lambda EXlox recombinants

[11] = target: T9, SH3P13, a novel mouse gene (mouse, UniProt Q62421 1-347); test: as above
T9 construct: Protein encoded by a cDNA clone, on plaque-lift filters; not shown: N-terminal phi10 leader (T7-Tag) common to all lambda EXlox recombinants
T9 sequence: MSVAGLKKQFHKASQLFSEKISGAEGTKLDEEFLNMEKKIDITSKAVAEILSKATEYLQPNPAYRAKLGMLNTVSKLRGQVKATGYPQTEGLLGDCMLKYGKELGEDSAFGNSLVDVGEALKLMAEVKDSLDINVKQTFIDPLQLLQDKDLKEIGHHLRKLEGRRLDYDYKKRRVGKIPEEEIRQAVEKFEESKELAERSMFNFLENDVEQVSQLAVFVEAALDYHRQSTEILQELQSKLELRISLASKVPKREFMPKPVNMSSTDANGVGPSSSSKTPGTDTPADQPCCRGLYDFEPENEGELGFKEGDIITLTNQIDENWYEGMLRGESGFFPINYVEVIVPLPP

[12] = target: T10, SH3P18, a novel human gene (human, UniProt Q9NZM3 952-1192); test: plaque-lift screen of human prostate cancer and bone marrow cDNA expression libraries with biotinylated peptide complexed to SA-AP (T12SRC.4 also present in the initial screens)
T10 construct: Fragment encoded by a cDNA clone, with at least three SH3 domains, on plaque-lift filters
T10 sequence: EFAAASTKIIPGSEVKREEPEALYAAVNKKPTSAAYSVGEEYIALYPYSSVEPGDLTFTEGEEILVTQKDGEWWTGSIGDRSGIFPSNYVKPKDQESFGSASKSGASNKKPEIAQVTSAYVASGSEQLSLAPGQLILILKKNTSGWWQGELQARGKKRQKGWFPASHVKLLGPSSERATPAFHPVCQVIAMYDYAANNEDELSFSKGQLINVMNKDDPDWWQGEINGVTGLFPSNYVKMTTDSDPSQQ

[13] = target: T11, SH3P14, human H74 (human, UniProt Q9UNF0 118-486, limits assumed); test: as above
T11 construct: Protein encoded by a cDNA clone from a lambda gt11 or gt22a human library, on plaque-lift filters
T11 sequence: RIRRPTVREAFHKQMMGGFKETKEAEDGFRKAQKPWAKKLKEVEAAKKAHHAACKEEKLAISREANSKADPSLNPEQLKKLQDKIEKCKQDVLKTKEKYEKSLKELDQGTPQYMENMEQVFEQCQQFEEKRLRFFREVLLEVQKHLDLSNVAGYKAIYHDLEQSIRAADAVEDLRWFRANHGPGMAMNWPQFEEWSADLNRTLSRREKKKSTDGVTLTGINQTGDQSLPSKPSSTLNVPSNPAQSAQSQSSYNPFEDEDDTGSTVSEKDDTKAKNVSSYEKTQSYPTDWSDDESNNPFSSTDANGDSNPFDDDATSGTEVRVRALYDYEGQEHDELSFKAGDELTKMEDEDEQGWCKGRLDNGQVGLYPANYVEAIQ

[14] = target: T12, SH3P17, a novel human gene (human, UniProt Q15811 729-1220); test: as above
T12 construct: Fragment encoded by a cDNA clone, with at least four SH3 domains, on plaque-lift filters
T12 sequence: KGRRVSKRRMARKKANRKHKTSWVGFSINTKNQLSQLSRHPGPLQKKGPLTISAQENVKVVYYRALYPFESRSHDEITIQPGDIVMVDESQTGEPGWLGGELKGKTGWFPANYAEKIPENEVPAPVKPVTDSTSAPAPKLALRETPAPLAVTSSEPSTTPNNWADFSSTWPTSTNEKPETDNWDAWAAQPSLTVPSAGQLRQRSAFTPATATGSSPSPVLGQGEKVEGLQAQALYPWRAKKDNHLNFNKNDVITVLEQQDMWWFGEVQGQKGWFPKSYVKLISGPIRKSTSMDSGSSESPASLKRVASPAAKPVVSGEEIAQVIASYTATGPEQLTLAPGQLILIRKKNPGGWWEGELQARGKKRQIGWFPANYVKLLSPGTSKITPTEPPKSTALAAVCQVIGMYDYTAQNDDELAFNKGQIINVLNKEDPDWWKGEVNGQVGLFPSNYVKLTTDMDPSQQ

[15] = target: T13, SH3P9, a novel human gene (human, UniProt O00499 44-593); test: as above
T13 construct: Protein encoded by a cDNA clone from a lambda gt11 or gt22a human library, on plaque-lift filters; The vector fusion partner is not described; also called human homolog of SH3P9
T13 sequence: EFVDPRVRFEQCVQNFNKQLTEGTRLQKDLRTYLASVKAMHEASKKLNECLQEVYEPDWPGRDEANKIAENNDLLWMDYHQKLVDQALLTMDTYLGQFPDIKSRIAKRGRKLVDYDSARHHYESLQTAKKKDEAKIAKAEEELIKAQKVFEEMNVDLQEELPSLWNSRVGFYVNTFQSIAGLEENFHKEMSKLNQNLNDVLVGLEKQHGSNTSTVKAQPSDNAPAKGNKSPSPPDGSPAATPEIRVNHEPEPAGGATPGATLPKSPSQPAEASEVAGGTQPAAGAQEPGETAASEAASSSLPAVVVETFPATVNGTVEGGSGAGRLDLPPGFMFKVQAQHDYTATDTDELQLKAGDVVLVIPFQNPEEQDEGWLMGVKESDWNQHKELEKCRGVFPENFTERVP

T7 sequence (Q60598 whole entry S298P): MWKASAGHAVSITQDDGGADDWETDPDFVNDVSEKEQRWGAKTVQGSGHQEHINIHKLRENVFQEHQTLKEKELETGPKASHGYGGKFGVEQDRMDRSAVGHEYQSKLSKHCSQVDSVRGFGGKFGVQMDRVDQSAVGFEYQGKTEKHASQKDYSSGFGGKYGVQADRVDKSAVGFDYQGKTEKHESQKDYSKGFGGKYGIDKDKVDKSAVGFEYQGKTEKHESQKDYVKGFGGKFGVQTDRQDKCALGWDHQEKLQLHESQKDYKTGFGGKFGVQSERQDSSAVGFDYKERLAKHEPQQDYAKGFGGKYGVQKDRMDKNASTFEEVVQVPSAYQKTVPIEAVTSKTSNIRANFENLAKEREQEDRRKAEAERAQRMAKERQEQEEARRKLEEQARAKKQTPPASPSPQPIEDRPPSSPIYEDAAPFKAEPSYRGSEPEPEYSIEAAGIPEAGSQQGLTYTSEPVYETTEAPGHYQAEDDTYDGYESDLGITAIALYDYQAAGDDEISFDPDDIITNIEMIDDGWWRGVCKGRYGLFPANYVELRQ
T8 sequence (Q64010 whole entry): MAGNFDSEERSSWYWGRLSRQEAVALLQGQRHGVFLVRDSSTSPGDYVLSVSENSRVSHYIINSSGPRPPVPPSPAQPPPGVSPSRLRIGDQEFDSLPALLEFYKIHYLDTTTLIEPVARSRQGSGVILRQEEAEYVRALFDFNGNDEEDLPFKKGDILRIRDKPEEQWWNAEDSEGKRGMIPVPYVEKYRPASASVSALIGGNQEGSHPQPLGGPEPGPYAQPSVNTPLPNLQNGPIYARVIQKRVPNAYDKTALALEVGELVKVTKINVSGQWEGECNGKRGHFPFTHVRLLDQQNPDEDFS
T1 sequence (Q62419 other isoform, or with tags, fused parts or gaps): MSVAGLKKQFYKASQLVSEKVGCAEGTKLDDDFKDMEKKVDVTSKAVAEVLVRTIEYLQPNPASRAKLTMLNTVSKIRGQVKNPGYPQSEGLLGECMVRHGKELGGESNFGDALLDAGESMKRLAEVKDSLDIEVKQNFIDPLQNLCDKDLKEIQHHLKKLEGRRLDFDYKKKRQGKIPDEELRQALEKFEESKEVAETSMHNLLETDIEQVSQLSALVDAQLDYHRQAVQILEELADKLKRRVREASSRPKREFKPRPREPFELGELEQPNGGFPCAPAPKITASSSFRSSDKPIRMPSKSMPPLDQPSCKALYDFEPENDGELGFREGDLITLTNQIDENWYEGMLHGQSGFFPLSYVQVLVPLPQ
T3 sequence (Q62418 other isoform, or with tags, fused parts or gaps): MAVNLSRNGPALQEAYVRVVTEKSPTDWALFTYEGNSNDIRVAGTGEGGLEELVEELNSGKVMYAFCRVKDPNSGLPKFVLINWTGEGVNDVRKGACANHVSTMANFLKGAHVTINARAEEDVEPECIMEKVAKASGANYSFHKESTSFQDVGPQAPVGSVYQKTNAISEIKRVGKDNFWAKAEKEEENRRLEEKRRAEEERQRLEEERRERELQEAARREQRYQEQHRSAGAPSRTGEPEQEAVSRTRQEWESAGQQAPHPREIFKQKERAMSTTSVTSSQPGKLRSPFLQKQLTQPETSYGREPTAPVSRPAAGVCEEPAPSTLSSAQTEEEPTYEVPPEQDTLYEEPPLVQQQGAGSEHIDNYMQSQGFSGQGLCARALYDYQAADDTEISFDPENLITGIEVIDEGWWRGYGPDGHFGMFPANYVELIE

O=c1[nH]c(=O)n([C@@H]2O[C@H](CO)[C@@H](O)[C@@H]2F)cc1I [FIAU]
liver failure in certain patients: suspected toxic side effects [2]
effective: effectiveness against the virus that causes hepatitis B [1]

B1: pCort (biotin-SGSGSRLTPQSKPPLPPKPSWVSR-NH2) (peptide)
peptide: Biotin-SGSGSRLTPQSKPPLPPKPSWVSR-NH2
SMILES: CC(C)C[C@H](NC(=O)[C@H](CCCNC(=N)N)NC(=O)[C@H](CO)NC(=O)CNC(=O)[C@H](CO)NC(=O)CNC(=O)[C@H](CO)NC(=O)CCCC[C@@H]1SC[C@@H]2NC(=O)N[C@@H]21)C(=O)N[C@H](C(=O)N1CCC[C@H]1C(=O)N[C@@H](CCC(N)=O)C(=O)N[C@@H](CO)C(=O)N[C@@H](CCCCN)C(=O)N1CCC[C@H]1C(=O)N1CCC[C@H]1C(=O)N[C@@H](CC(C)C)C(=O)N1CCC[C@H]1C(=O)N1CCC[C@H]1C(=O)N[C@@H](CCCCN)C(=O)N1CCC[C@H]1C(=O)N[C@@H](CO)C(=O)N[C@@H](Cc1c[nH]c2ccccc12)C(=O)N[C@H](C(=O)N[C@@H](CO)C(=O)N[C@@H](CCCNC(=N)N)C(N)=O)C(C)C)[C@@H](C)O
notes: Synthetic peptide with the Cortactin SH3 recognition unit motif; used complexed with streptavidin-alkaline phosphatase
binds: binding result [3] | binding result [4] | binding result [5] | binding result [6] | binding result [7] | binding result [8] | binding result [9] | binding result [10] | binding result [11]

B2: T12SRC.1 (biotin-GILAPPVPPRNTR-NH2) (peptide)
peptide: Biotin-GILAPPVPPRNTR-NH2
SMILES: CC[C@H](C)[C@H](NC(=O)CNC(=O)CCCC[C@@H]1SC[C@@H]2NC(=O)N[C@@H]21)C(=O)N[C@@H](CC(C)C)C(=O)N[C@@H](C)C(=O)N1CCC[C@H]1C(=O)N1CCC[C@H]1C(=O)N[C@H](C(=O)N1CCC[C@H]1C(=O)N1CCC[C@H]1C(=O)N[C@@H](CCCNC(=N)N)C(=O)N[C@@H](CC(N)=O)C(=O)N[C@H](C(=O)N[C@@H](CCCNC(=N)N)C(N)=O)[C@@H](C)O)C(C)C
notes: Used complexed with streptavidin-alkaline phosphatase; also called variant of the pSrcCII peptide
binds: binding result [12] | binding result [13] | binding result [14] | binding result [15]
